Laboratory results taken from the nanobody polyreactivity screen of Harvey et al. (2022).

Assay: yeast display, Sf9 membrane polyspecificity reagent, FACS + sequencing; frameworks hold sequencing errors
How it was run: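 A synthetic nanobody library was expressed on Saccharomyces cerevisiae BJ5465 by galactose induction for 36–48 hours. The library was stained for 1 hour at 4 °C with 10% biotinylated, detergent-solubilized Sf9 membrane reagent and enriched with streptavidin microbeads before FACS. Low and high (top ~1%) gates were set on anti-HA fluorescence for expression and streptavidin fluorescence for reagent binding, and each polyreactivity label reflects the gate of origin.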

| Sequence | polyreactivity (PSR sort gate) |
| --- | --- |
| QVQLVESGGGLVQAGGSLRLSCAASGRTFYYYAMGWYRQAPGKERELVAAISSSGGSTYYADSVKGRFTISRDNAKNTVYLQMNSLKPEDTAVYYCNARYGGYRARYTYNYWGQGTQVTVSS | high polyreactivity |
| QVQLVESGGGLVQAGGSLRLSCAASGRTFYYYAMGWYRQAPGKERELVADITYSGGSTYYADSVKGRFTISRDNAKNTVYLQMNSLKPEDTAVYYCAARVTVSHWPYYYDSYDYWGQGTQVTVSS | low polyreactivity |
| QVQLVESGGGLVQAGGSLRLSCAASGRTFYYYAMGWYRQAPGKERELVAGITATGSSTYYADSVKGRFTISRDNAKYTVYLQMNSLKPEDTAVYYCAADGYRIDVYHADYRYDYWGQGTQVTVSS | low polyreactivity |
| QVQLVESGGGLVQAGGSLRLSCAASGRTFYYYAMGWYRQAPGKERELVARISYSGSNTYYADSVKGRFTISRDNAKNTVYLQMNSLKPEETAVYYCAAGYLVWRDSATLDYWGQGTQVTVSS | high polyreactivity |
| QVQLVESGGGLVQAGGSLRLSCAASGRTFYYYAMGWYRQAPGKERELVASITYYADSVKGRFTISRDNAKNTVYLQMNSLKPEDTAVYYCAAEHKYRYDYWGQGTQVTVSS | low polyreactivity |
| QVQLVESGGGLVQAGGSLRLSCAASGRTFYYYAMGWYRQAPGNERELVAAISRGGGTNYADSVKGRFTISRDNAKNTVYLQMNSLKPEDTAVYYCAAARIGPQRYDYWGHGTQVTVSS | high polyreactivity |
| QVQLVESGGGLVQAGGSLRLSCAASGRTFYYYTMGWYRQAPGKERELVAAISVSGGSTYYADSVKGRFTISRDNAKNTVYLQMNSLKPEDTAVYYCAAGDGWGRRYYWGQGTQVTVSS | high polyreactivity |
| QVQLVESGGGLVQAGGSLRLSCAASGRTFYYYTMGWYRQAPGKERELVAAITWNGGSTYYADSVKGRFTISRDNAKNTVYLQMNSLKPEDTGVYYCIARWTWRYDYWGQGTQVTLSS | high polyreactivity |
| QVQLVESGGGLVQAGGSLRLSCAASGRTIDSYAMGWSRQAPGKEREFVAAISYSGTSTYYADSVKGRFTISRDNAKNTVYLQMNSLKPEDTAVYYCSKEYNFRLWGQGTQVTVSS | low polyreactivity |
| QVQLVESGGGLVQAGGSLRLSCAASGRTIDYNGMGWYRQAPGKEREMVAVISSSGGSTFYADSVKGRFTISRDNAKNTVYLQMNSLKPEDTAVYYSAADFIVAYTLHGSYDYWGQGTQVTVSS | low polyreactivity |
| QVQLVESGGGLVQAGGSLRLSCAASGRTIGFNGMGWYRQAPGKERELVAAITRSGGNTYADSVKGRFTISRDNAKNTVYLQMNSLKPEDTAVYYCATTYVGVTLTGPGDYWGQGTQVTVSS | low polyreactivity |
| QVQLVESGGGLVQAGGSLRLSCAASGRTIGLNGMGWYRQAPGNERELVAGISWSGGSTNYADSVKGRFTISRDNAKNTVYLQMNSLKPEDTAVNYCPPDFVYYVVNDFGWSYAYEYWGQGTQVTVSS | low polyreactivity |
| QVQLVESGGGLVQAGGSLRLSCAASGRTIGVYAMGWYRQAPGKERELVAAISWSGGTTYYADSVKGRFTISRDNAKNTVYLQMNSLKPEDTAVYYCAADSYTEVEYWGQGTQVTVSS | low polyreactivity |
| QVQLVESGGGLVQAGGSLRLSCAASGRTIHYYAMGRSRQAPGKERELVAAITRGGNTYYADSVKGRFTISRDNAKNTVYLQMNSLKPEDTAVYYCAKDNHFEAYRYDYWGQGTQVTVSS | high polyreactivity |
| QVQLVESGGGLVQAGGSLRLSCAASGRTIKKYTMGWSRQAPGKERELVAVITSGGSTYYADSVKGRFTISRDNAKNTVYFQMNSLKPEDTAVYYCAVIYPELRTWGYYFWGQGTQVTVSS | high polyreactivity |
| QVQLVESGGGLVQAGGSLRLSCAASGRTIKYNAMGRYRQGPGKERELVAAITYSGGSTYYADSVKGRFTIARDNAKNTVYLQMNSLKPEDTSVYYCAAESRPYDPGIYGDYDYWGQGTQVTVSS | low polyreactivity |
| QVQLVESGGGLVQAGGSLRLSCAASGRTIKYYAMGWYRQAPGKERELVAVISWSGGSTYYADSVKGRFTISRDNAKNTVYLQMNSLKPEDTAVYYCNAVHQYRRRYNYWGQGTQVTVSS | high polyreactivity |
